According to patent US20020115216A1:

Molecular target: asialoglycoprotein receptor (UniProt P34927)
Assay: cell-based or functional assay

UniProt P34927, sequence (P34927 whole entry, chain 1 of 2): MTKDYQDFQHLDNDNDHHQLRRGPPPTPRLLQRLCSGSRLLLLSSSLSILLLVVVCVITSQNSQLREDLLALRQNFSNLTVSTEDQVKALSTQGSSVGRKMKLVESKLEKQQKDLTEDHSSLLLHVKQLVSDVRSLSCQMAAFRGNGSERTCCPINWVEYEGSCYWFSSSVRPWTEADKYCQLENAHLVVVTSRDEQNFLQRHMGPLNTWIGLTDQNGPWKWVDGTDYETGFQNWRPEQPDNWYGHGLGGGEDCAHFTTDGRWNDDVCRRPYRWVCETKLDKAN
UniProt P34927, sequence (P24721 whole entry, chain 2 of 2, further chain): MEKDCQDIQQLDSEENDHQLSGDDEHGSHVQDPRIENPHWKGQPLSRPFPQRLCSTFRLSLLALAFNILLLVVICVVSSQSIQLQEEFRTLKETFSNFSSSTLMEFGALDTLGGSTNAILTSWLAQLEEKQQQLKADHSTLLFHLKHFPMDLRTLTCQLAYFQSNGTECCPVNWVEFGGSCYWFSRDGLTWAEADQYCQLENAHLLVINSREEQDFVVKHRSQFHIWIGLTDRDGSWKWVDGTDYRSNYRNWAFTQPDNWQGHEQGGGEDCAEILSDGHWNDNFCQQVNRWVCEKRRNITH

Substance: asialofetuin (from UniProt P12763 19-359) (ligand)
- inhibition of uptake/expression of the cis pT/GFP/SB in the liver (confocal microscopy of GFP, mice coadministered asialofetuin): > 80%
